In US20210355212A1 (published 2021):

Target: T1, mouse C-KIT (SB, Lot #LC05DE2304) (mouse, UniProt P05532 25-523)
T1 chain: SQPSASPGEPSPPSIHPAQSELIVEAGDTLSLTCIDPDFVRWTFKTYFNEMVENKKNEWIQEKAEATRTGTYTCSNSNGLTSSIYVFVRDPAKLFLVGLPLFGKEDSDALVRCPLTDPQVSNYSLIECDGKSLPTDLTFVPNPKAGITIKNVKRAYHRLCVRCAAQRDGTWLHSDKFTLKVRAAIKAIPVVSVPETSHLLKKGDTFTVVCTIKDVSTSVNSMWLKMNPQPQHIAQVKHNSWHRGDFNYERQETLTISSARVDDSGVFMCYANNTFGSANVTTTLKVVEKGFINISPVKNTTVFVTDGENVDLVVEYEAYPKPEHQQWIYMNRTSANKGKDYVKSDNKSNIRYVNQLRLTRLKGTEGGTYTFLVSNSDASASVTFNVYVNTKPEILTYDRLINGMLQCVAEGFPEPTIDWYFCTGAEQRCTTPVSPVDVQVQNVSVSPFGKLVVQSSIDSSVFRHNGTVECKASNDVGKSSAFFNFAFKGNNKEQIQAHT
Assay: SPR

Kd: 11.5 nM
B1: 2G4 antibody (antibody, V domains shown)
VH: QVQLVESGGGVVQPGRSLRLSCAASGFTFSRYGMHWVRQAPGKGLEWVAVIWYDGTNKDYTDSVRGRFTISRDNSKNTLYLQMNSLRAEDTAVYYCAREDWAEAFDMWGQGTTVTVSS
VL: not shown
